Assay [1] concerns the target T1, Recombinant human Guanylate Cyclase 1 (human, UniProt Q02846 52-1103).
T1 sequence (looked up): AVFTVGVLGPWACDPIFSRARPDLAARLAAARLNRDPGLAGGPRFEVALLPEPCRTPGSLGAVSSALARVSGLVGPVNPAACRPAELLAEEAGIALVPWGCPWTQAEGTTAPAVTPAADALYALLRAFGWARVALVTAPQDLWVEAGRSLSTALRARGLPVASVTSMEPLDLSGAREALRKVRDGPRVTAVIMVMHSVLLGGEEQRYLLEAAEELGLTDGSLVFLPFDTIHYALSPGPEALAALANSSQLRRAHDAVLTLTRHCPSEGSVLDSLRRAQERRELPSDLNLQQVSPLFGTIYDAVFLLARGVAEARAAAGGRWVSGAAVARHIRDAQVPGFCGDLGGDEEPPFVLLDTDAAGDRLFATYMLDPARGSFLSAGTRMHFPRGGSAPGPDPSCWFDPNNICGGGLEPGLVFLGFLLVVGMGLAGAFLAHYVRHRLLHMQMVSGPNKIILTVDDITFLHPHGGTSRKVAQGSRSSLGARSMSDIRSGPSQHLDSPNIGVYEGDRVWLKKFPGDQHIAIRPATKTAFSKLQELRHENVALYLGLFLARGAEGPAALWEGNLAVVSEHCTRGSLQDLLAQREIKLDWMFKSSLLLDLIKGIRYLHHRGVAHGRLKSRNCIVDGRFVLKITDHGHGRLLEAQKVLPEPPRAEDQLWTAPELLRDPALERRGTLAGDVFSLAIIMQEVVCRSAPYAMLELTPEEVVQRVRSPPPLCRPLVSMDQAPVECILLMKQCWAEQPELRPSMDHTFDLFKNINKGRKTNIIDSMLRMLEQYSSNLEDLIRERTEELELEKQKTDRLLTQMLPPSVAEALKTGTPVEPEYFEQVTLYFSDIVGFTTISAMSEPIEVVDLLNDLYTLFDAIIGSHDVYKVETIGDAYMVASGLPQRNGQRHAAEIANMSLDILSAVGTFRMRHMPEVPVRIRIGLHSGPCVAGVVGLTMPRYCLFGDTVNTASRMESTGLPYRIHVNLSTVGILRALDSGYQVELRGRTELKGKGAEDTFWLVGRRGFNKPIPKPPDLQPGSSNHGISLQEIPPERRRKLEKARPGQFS

For assay [2], the target named is T1, Recombinant human Guanylate Cyclase 1. The experiment in a line: cell-based or functional assay.

Results on 4 molecules are retold here after PMC7037459, “Constitutive Activation of Guanylate Cyclase by the G86R GCAP1 Variant Is Due to “Locking” Cation-π Interactions that Impair the Activator-to-Inhibitor Structural Transition” (International Journal of Molecular Sciences, 2020).

B1: Guanylate Cyclase activating protein 1 (GCAP1) WT (natural protein)
chain: MGNVMSGKSVEELSSTECHQWYKKFMTECPSGQLTLYEFRQFFGLKNLSPSASQYVEQMFETFDFNKDGYIDFMEYVAALSLVLKGKVEQKLRWYFKLYDVDGNGCIDRDELLTIIQAIRAINPCSDTTMTAEEFTDTVFSKIDVNGDGELSLEEFIEGVQKDQMLLDTLTRSLDLTRIVRRLQNGEQDEEGADEAAEAAG
modifications: myristoylated forms were obtained by co-transformation with yeast N-myristoyl transferase; which form stood in each experiment is not stated
In the case of B1, in assay [1], the GC activity (cGMP synthesis) of cell membranes containing GC with ~10 µM GCAP1, 1 mM Mg2+ and 2 mM EGTA (absence of Ca2+) (nmol cGMP*min^−1*mg protein^−1) is 20.4; the fold decrease of cGMP synthesis at 33 µM free Ca2+ (inhibiting conditions) against the maximal activation without Ca2+ was 34 fold.

B2: GCAP1 G86R+W94L (natural protein, human, UniProt P43080 1-201, looked up)
chain: MGNVMSGKSVEELSSTECHQWYKKFMTECPSGQLTLYEFRQFFGLKNLSPSASQYVEQMFETFDFNKDGYIDFMEYVAALSLVLKRKVEQKLRLYFKLYDVDGNGCIDRDELLTIIQAIRAINPCSDTTMTAEEFTDTVFSKIDVNGDGELSLEEFIEGVQKDQMLLDTLTRSLDLTRIVRRLQNGEQDEEGADEAAEAAG
modifications: myristoylated forms were obtained by co-transformation with yeast N-myristoyl transferase; which form stood in each experiment is not stated
For the molecule B2, in assay [2], the “fold decrease of cGMP synthesis at 33 µM free Ca2+ against the respective maximal activation without Ca2+” value came to 4 fold.

B3: GCAP1 G86R (natural protein, human, UniProt P43080 1-201, looked up)
chain: MGNVMSGKSVEELSSTECHQWYKKFMTECPSGQLTLYEFRQFFGLKNLSPSASQYVEQMFETFDFNKDGYIDFMEYVAALSLVLKRKVEQKLRWYFKLYDVDGNGCIDRDELLTIIQAIRAINPCSDTTMTAEEFTDTVFSKIDVNGDGELSLEEFIEGVQKDQMLLDTLTRSLDLTRIVRRLQNGEQDEEGADEAAEAAG
modifications: myristoylated forms were obtained by co-transformation with yeast N-myristoyl transferase; which form stood in each experiment is not stated
As for B3, in assay [2], the “fold decrease of cGMP synthesis at 33 µM free Ca2+ against the respective maximal activation without Ca2+” value turned out to be 2 fold.

B4: GCAP1 G86R+W94F (natural protein, human, UniProt P43080 1-201, looked up)
chain: MGNVMSGKSVEELSSTECHQWYKKFMTECPSGQLTLYEFRQFFGLKNLSPSASQYVEQMFETFDFNKDGYIDFMEYVAALSLVLKRKVEQKLRFYFKLYDVDGNGCIDRDELLTIIQAIRAINPCSDTTMTAEEFTDTVFSKIDVNGDGELSLEEFIEGVQKDQMLLDTLTRSLDLTRIVRRLQNGEQDEEGADEAAEAAG
modifications: myristoylated forms were obtained by co-transformation with yeast N-myristoyl transferase; which form stood in each experiment is not stated
With B4, the “fold decrease of cGMP synthesis at 33 µM free Ca2+ against the respective maximal activation without Ca2+” value in assay [2] was found to be 3 fold.
